In patent publication US20260132183A1 (ACADEMISCH ZIEKENHUIS LEIDEN H O D N LUMC, published 2026):
Each block holds one binder with its values, some of them ahead of it.

Key:
[1] = molecular target: T1, HLA-A*02:01 with beta-2 microglobulin (human); test: pHLA monomer refolding
T1 construct: also called HLA-A2

[2] = molecular target: T2, MAGE-A6 peptide on HLA-B*35:01 (human); test: cytokine release
T2 peptide: EVDPIGHVY

[3] = molecular target: T3, MAGE-A3 peptide on HLA-B*35:01 (human); test: multimer staining
T3 peptide: EVDPIGHLY

[4] = molecular target: T4, HLA-A*03:01 with beta-2 microglobulin (human); test: pHLA monomer refolding
T4 construct: also called HLA-A3

[5] = molecular target: T5, HLA-A*01:01 with beta-2 microglobulin (human); test: pHLA monomer refolding
T5 construct: also called HLA-A1

[6] = molecular target: T6, HLA-C*07:02 with beta-2 microglobulin (human); test: pHLA monomer refolding
T6 construct: also called HLA-C7; C702

[7] = molecular target: T7, MAGE-A1 peptide on HLA-B*07:02 (human); test: multimer staining
T7 peptide: RVRFFFPSL

[8] = molecular target: T8, HLA-B*07:02 with beta-2 microglobulin (human); test: pHLA monomer refolding
T8 construct: also called HLA-B7

[9] = molecular target: T9, MAGE-A1 peptide on HLA-C*07:02 (human); test: multimer staining
T9 peptide: VRFFFPSL

[10] = molecular target: T10, MAGE-A1 peptide on HLA-A*03:01 (human); test: multimer staining
T10 peptide: SLFRAVITK

[11] = molecular target: T11, MAGE-A1 peptide on HLA-A*02:01 (human); test: multimer staining
T11 peptide: KVLEYVIKV

[12] = molecular target: T12, MAGE-A9 peptide on HLA-A*01:01 (human); test: multimer staining
T12 peptide: YVGKEHMFY

B1: KASEKIFYV (SSX2 peptide) (peptide)
peptide: KASEKIFYV
notes: synthetic peptide
- binding result [1]: binds

B3: IVLGVILTK (MAGE-A9 peptide) (peptide)
peptide: IVLGVILTK
notes: synthetic peptide
- binding result [4]: binds

B4: VIWEVLNAV (MAGE-C2 peptide) (peptide)
peptide: VIWEVLNAV
notes: synthetic peptide
- binding result [1]: binds

B5: KIWEELSVLEV (MAGE-A3/A6 peptide) (peptide)
peptide: KIWEELSVLEV
notes: synthetic peptide
- binding result [1]: binds

B6: RVRFFFPSLR (MAGE-A1 peptide) (peptide)
peptide: RVRFFFPSLR
notes: synthetic peptide
- binding result [4]: binds

B7: RCFPVIFGK (MAGE-A4 peptide) (peptide)
peptide: RCFPVIFGK
notes: synthetic peptide
- binding result [4]: binds

B8: ALKDVEERV (MAGE-C2 peptide) (peptide)
peptide: ALKDVEERV
notes: synthetic peptide
- binding result [1]: binds

B9: RVRIAYPSLR (MAGE-A4 peptide) (peptide)
peptide: RVRIAYPSLR
notes: synthetic peptide
- binding result [4]: binds

B10: GVYAGREHFV (MAGE-C2 peptide) (peptide)
peptide: GVYAGREHFV
notes: synthetic peptide
- binding result [1]: binds

B11: YVGKEHMFY (MAGE-A9 peptide) (peptide)
peptide: YVGKEHMFY
notes: synthetic peptide
- binding result [5]: binds

B12: VRFFFPSL (MAGE-A1 peptide) (peptide)
peptide: VRFFFPSL
notes: synthetic peptide
- binding result [6]: binds

B13: RIFPKIMPK (SSX4 peptide) (peptide)
peptide: RIFPKIMPK
notes: synthetic peptide
- binding result [4]: binds

B15: ALREEEEGV (MAGE-A1 peptide) (peptide)
peptide: ALREEEEGV
notes: synthetic peptide
- binding result [1]: binds

B16: KVLEFLAKL (MAGE-C2 peptide) (peptide)
peptide: KVLEFLAKL
notes: synthetic peptide
- binding result [1]: binds

B17: RVRFFFPSL (MAGE-A1 peptide) (peptide)
peptide: RVRFFFPSL
notes: synthetic peptide
- binding result [8]: binds

B18: GVYDGREHTV (MAGE-A4 peptide) (peptide)
peptide: GVYDGREHTV
notes: synthetic peptide
- binding result [1]: binds

B19: LTQDLVQEKYLEY (MAGE-A1 peptide) (peptide)
peptide: LTQDLVQEKYLEY
notes: synthetic peptide
- binding result [5]: binds

B20: FVYGEPREL (MAGE-C2 peptide) (peptide)
peptide: FVYGEPREL
notes: synthetic peptide
- binding result [1]: binds

B21: FPSLREAAL (MAGE-A1 peptide) (peptide)
peptide: FPSLREAAL
notes: synthetic peptide
- binding result [8]: binds

B22: YPSLREAAL (MAGE-A4 peptide) (peptide)
peptide: YPSLREAAL
notes: synthetic peptide
- binding result [8]: binds

Results, then the binder that gave them:

- binding result [2]: recognises
- binding result [3]: recognises
B2: TCR CT23.2H9 (TCR, V domains shown)
Valpha: KDQVFQPSTVASSEGAVVEIFCNHSVSNAYNFFWYLHFPGCAPRLLVKGSKPSQQGRYNMTYERFSSSLLILQVREADAAVYYCAVPNNYGQNFVFGPGTRLSVLP
Vbeta: NAGVTQTPKFRILKIGQSMTLQCTQDMNHNYMYWYRQDPGMGLKLIYYSVGAGITDKGEVPNGYNVSRSTTEDFPLRLELAAPSQTSVYFCASSYSGQGLYEQYFGPGTRLTVT

- binding result [7]: recognises
B14: TCR CT12.3G2 (TCR, V domains shown)
Valpha: AQKVTQAQTEISVVEKEDVTLDCVYETRDTTYYLFWYKQPPSGELVFLIRRNSFDEQNEISGRYSWNFQKSTSSFNFTITASQVVDSAVYFCALSEAYSGAGSYQLTFGKGTKLSVIP
Vbeta: EPEVTQTPSHQVTQMGQEVILRCVPISNHLYFYWYRQILGQKVEFLVSFYNNEISEKSEIFDDQFSVERPDGSNFTLKIRSTKLEDSAMYFCASSEALQPQHFGDGTRLSIL

- binding result [1]: binds
B23: VLGEEQEGV (MAGE-A9 peptide) (peptide)
peptide: VLGEEQEGV
notes: synthetic peptide

- binding result [1]: binds
B24: ALIEVGPDHFC (MAGE-C2 peptide) (peptide)
peptide: ALIEVGPDHFC
notes: synthetic peptide

- binding result [4]: binds
B25: ATLPPFMCNK (SSX2 peptide) (peptide)
peptide: ATLPPFMCNK
notes: synthetic peptide

- binding result [9]: recognises
B26: TCR CT31.10C1 (TCR, V domains shown)
Valpha: DQQVKQNSPSLSVQEGRISILNCDYTNSMFDYFLWYKKYPAEGPTFLISISSIKDKNEDGRFTVFLNKSAKHLSLHIVPSQPGDSAVYFCAASAQNNDMRFGAGTRLTVKP
Vbeta: DAGVIQSPRHEVTEMGQEVTLRCKPISGHDYLFWYRQTMMRGLELLIYFNNNVPIDDSGMPEDRFSAKMPNASFSTLKIQPSEPRDSAVYFCASGTGWDTEAFFGQGTRLTVV

- binding result [1]: binds
B27: KVLEYVIKV (MAGE-A1 peptide) (peptide)
peptide: KVLEYVIKV
notes: synthetic peptide

- binding result [8]: binds
B28: RPADLTRVIM (MAGE-A11 peptide) (peptide)
peptide: RPADLTRVIM
notes: synthetic peptide

- binding result [4]: binds
B29: SMLGDGHSMPK (MAGE-A9 peptide) (peptide)
peptide: SMLGDGHSMPK
notes: synthetic peptide

- binding result [10]: recognises
B30: TCR CT23.3H4 (TCR, V domains shown)
Valpha: RKEVEQDPGPFNVPEGATVAFNCTYSNSASQSFFWYRQDCRKEPKLLMSVYSSGNEDGRFTAQLNRASQYISLLIRDSKLSDSATYLCVVNFNYGQNFVFGPGTRLSVLP
Vbeta: DTGVSQDPRHKITKRGQNVTFRCDPISEHNRLYWYRQTLGQGPEFLTYFQNEAQLEKSRLLSDRFSAERPKGSFSTLEIQRTEQGDSAMYLCASSPLGVNTEAFFGQGTRLTVV

- binding result [11]: recognises
B31: TCR CT27.4F7 (TCR, V domains shown)
Valpha: GEDVEQSLFLSVREGDSSVINCTYTDSSSTYLYWYKQEPGAGLQLLTYIFSNMDMKQDQRLTVLLNKKDKHLSLRIADTQTGDSAIYFCAESIDARLMFGDGTQLVVKP
Vbeta: DSGVTQTPKHLITATGQRVTLRCSPRSGDLSVYWYQQSLDQGLQFLIQYYNGEERAKGNILERFSAQQFPDLHSELNLSSLELGDSALYFCASSPGGDTQYFGPGTRLTVL

- binding result [4]: binds
B32: SVMGVYVGK (MAGE-A9 peptide) (peptide)
peptide: SVMGVYVGK
notes: synthetic peptide

- binding result [12]: recognises
B33: TCR CT43.2D8 (TCR, V domains shown)
Valpha: EDKVVQSPLSLVVHEGDTVTLNCSYEVTNFRSLLWYKQEKKAPTFLFMLTSSGIEKKSGRLSSILDKKELSSILNITATQTGDSAIYLCAVEGWDDKIIFGKGTRLHILP
Vbeta: DAGITQSPRHKVTETGTPVTLRCHQTENHRYMYWYRQDPGHGLRLIHYSYGVKDTDKGEVSDGYSVSRSKTEDFLLTLESATSSQTSVYFCAISEGRNEQYFGPGTRLTVT

- binding result [1]: binds
B34: TLDEKVAEL (MAGE-C2 peptide) (peptide)
peptide: TLDEKVAEL
notes: synthetic peptide

- binding result [8]: binds
B35: RVRIAYPSL (MAGE-A4 peptide) (peptide)
peptide: RVRIAYPSL
notes: synthetic peptide
